Reference: patent publication US20220023399

Assays:
[1] = target: T1, rabbit serum albumin, P49065
T1 chain: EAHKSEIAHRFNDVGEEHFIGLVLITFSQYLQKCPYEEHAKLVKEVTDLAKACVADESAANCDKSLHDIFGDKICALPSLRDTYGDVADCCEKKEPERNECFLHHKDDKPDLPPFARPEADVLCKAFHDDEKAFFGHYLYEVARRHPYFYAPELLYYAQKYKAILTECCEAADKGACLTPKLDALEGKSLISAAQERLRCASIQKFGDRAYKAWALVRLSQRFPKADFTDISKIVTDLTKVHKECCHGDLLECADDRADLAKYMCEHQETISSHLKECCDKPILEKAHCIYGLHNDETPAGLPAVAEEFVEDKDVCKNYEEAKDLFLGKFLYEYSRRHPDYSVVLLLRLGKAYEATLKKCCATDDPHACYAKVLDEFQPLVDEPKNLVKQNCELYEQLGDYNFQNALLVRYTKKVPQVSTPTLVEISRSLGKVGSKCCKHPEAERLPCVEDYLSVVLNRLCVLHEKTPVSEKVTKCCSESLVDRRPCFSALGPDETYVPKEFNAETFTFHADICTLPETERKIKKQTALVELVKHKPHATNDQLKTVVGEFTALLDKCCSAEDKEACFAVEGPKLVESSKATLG

B1: PlySs2 (CF-301) lysin (protein)
chain: MTTVNEALNNVRAQVGSGVSVGNGECYALASWYERMISPDATVGLGAGVGWVSGAIGDTISAKNIGSSYNWQANGWTVSTSGPFKAGQIVTLGATPGNPYGHVVIVEAVDGDRLTILEQNYGGKRYPVRNYYSAASYRQQVVHYITPPGTVAQSAPNLAGSRSYRETGTMTVTVDALNVRRAPNTSGEIVAVYKRGESFDYDTVIIDVNGYVWVSYIGGSGKRNYVATGATKDGKRFGNAWGTFK
Fold decrease in MIC (50% MHB/50% heat-inactivated human serum supplemented with RabSA, 40 mg/mL) [1]: 4 fold | Fold decrease in MIC (MHB supplemented with RabSA, 40 mg/mL) [1]: 8 fold | ΣFICavg (checkerboard, S. aureus, heat-inactivated human serum); rabbit serum albumin from serum [1]: ≤0.1 | Fold decrease in CF-301 MIC compared to media alone (delipidated human serum + Oleate 0.625 mg/mL) (human serum albumin): 8 fold | Fold decrease in CF-301 MIC compared to media alone (delipidated human serum + Palmitate 0.625 mg/mL) (human serum albumin): 16 fold | Fold decrease in CF-301 MIC compared to media alone (delipidated human serum + Palmitate + Oleate) (human serum albumin): 16 fold | Fold decrease in MIC (50% MHB/50% heat-inactivated human serum supplemented with HSA, 40 mg/mL) (human serum albumin): 4 fold | Fold decrease in MIC (MHB supplemented with HSA, 40 mg/mL) (human serum albumin): 8 fold | Fold increase in CF-301 specific activity with rHSA, 4% (human serum albumin): 17.8 fold | Specific Activity (Units/mg) of CF-301 in the lytic assay with rHSA, 4% (human serum albumin): 43100 Units/mg | ΣFICavg (checkerboard, S. aureus, heat-inactivated human serum); HSA fraction V (human serum albumin): ≤0.086 | ΣFICavg (checkerboard, S. aureus, heat-inactivated human serum); HSA recombinant (human serum albumin): ≤0.1
